Laboratory results: the DeepSol protein solubility set

experiment: soluble on expression in E. coli; label from the status in PepcDB or PDB records

Sequence | soluble on expression in E. coli
MKFCKKCVMPDTKPDLHFDEEGVCDACRSQEAKNQNINWQEREKEFFELIKKYKKHPVYDCVIGVSGGKDSTFQVVKMLELGLNPLCVCFEPSVPTKIGRKNLDNLNHLGVDLIHIKRDPKVYQKLAREAFIRTGDNEWQNHLGIFTSVPRIAVNFGVPLIIWGESPQIEYGGPASSKNKNILGREWLEEFGGLLGNRASDMLGVNGITEKDLFLYTYPSDEELQRVGVTGLFLGYYFKWDYKKILEISKKYGFLTLDHPVETTYENFENLDCYSNHVHDYLKYCKYGFGRATDNACLDIRLGYISREEGVRLAQKYDGKPPKKAIKKYLEFSGFSEEEFQKIVDSFTNKKIFKRDENGKFIRDYDGSLVRKDECVLK | not soluble
MPTLIVLIGPTGVGKTELSLRLAENFHTSIVSADSRQLYAELKIGTAAPTPDQLKRVPHYLVGTLHLTDYYSAAQYEQEAMEILHQLFTEHEVVVLTGGSMMYVDAICKGIDDIPTVDAETRQVMLQKYEEEGLEQLCAELRLLDPDYYRIVDLKNPKRVIHALEICYMTGKTYTSFRTQQKKERPFRILKIGLTRDREELYDRINRRVDQMMEEGLLDEVRSVLSYRHLNSLNTVGYKELFKYLDGEWELPFAIEKIKQNSRIYSRKQMTWFKRDEEIRWFHPEQETEILEYLRLQNLTHLPSLDTFLEHHHHHH | soluble
SMSEATPCIKAISPSEGWTTGGATVIIIGDNFFDGLQVVFGTMLVWSELITPHAIRVQTPPRHIPGVVEVTLSYKSKQFCKGAPGRFVYTALNEPTIDYGFQRLQKVIPRHPGDPERLPKEVLLKRAADLVEALYGMPHNNQEIILKRAADIAEALYSV | soluble
MAAGKRDYYEVLGVSRSATAQDIKRAFRKLAMQYHPDRHKGEGETVQKQNEEKFKEVNEAYEVLSDTEKRGMYDRFGHEGLNASGFHETGFNPFDIFNSVFGEGFSFDMDGGSPFDFIFSRGKKSRQNRVVLPYDLEIAVGVDISFFEMTNGCTRTIEYTKRVTCSACDGFGAEGGETGMVSCNSCEGNGFILKNQRSIFGTVQSQMLCQSCGGQGKQAKHKCKTCKGSKYKKVPTTKEIQIPAGIYHGDALVDDHGGNEFGGHVGKLVVHVGVLPSKIFKRVDHNVVANVLVDPMIAITGGKIELPTLEGIKEFNLRAGTKSGEQIVIPGGGIKFTKNFRKKAGDLIIIISYARPSEYSAPELRKLKEFIKPNQEVKQYLEHHHHHH | soluble
MDEEMLIPEEEYQKSGVHIGTQVKSSDMKPYIFKIRNDGLYILDVKKTNSKLIVAGKMLARFEPQDILVVAQRQYAFRPVAKFAEVTGATAITGRFNPGTLTNPSLKFYKEVKVIIVTDPLADVQAMKEAVKIGIPIIALCDANNKTDFVDLIIPTNNKGRRSLAVIYWLLAREILKNRGTITSYDQFKYTIDDFEAQI | not soluble
MGSDKIHHHHHHDSLTESSSNTFWQTPDDALMALASCYDALQSNQLYNSDQYSLGPLYMDCISDNGGHFNWSGWMEGYDMAMGIHTPSSSIIGSYWKDCYEVISRCNVLIANIDRVDMDASQKAIYQAEAKTIRALMYINLTMTYQDVPFLTAPLTIDEAECEKTDRAAIVAHVMTDLQDAAEVLPQNASSRGHITKGAALSLLGRVALYNEKWDDAIAAYKQVQGLGYSLDPSYAKLFTQSGETSPEIIFAVRYEGPGMSEGAAFNAHWNTPLEAMNGTIDLADAYYCKDGKPTTDTKIAELNGGGGLDVSKPNPAHFENRDPRLYSTLFVPGMLWNGKGGIDTSASNPYANVYGGAAASLSTVYVYKYFDPTDTSNSWDNGQDFYVVRYAEVLLSLAEAMVQKGGYVYSDVTALVNEVRQRADVNMPTVEEVEGTSLSKDELLEVIKHERRVELAFEGLRLFDLYRWKELDKAVANIENERTMYGLAYEARKFNGERDYVWPLPTAELDTNKKLVQHDLWK | not soluble
MADETTMRAGRGPGRACGRVSGVRILVVEDEPKMTALLARALTEEGHTVDTVADGRHAVAAVDGGDYDAVVLDVMLPGIDGFEVCARLRRQRVWTPVLMLTARGAVTDRIAGLDGGADDYLTKPFNLDELFARLRALSRRGPIPRPPTLEAGDLRLDPSEHRVWRADTEIRLSHKEFTLLEALIRRPGIVHTRAQLLERCWDAAYEARSNIVDVYIRYLRDKIDRPFGVTSLETIRGAGYRLRKDGGRHALPR | not soluble
MKQPKVSVIVTCYNYATYLEGCLASILNQTYQDFELVIINDGSTDNTDEVISRFLDNDKVRYINQKNTGQAIATNNGIAAAAGELIAFLDADDLWEPTKLEKQVRLFNRDSIGVVYSRIRFMDAEGCTLDMQLEGKYYTPRSGRVTDALLFENFIPYSSTVVRKECFDKFGMFNPEYKNGLDWDLWLRISREYEFDFVDEYLLIYRIGHPGQLTSNVERSVRCADLIFDRFLEENPGIVPDSVVRKAMAYSYCRRGNQFRKIDRKRSNGFFLNALAKNPAEIGAYVGLVKNFLNMLEHHHHHH | not soluble
MPMKEFPGLFLWKMWSLDKKKENMLKTHDPGISRLEPVTKTKPWREPLWERNWQGQHLDSRGYLAGPGREDGRNPLKLFVRATLQESLQFHRPDFISHIWERIKRLKLIVQERKLQSMLKSERDALFDIDRERQGHQNRMRPLPKRVFLAVQKNKPISKKEMIQRSKRTHAGGTVAQRLPGALWVKERLPGKGEKHPGIPVTSGSSTQTM | not soluble
MGSDKIHHHHHHTQKPDITYMPQPPFNPPTYVCYKAPAPIKIDGKLSPGEWDAIPWTSDFVDIEGDKRPAPHFQTRAKMTYDDNGMYFAVLMEEPHVWATITEHDAVIFHDNDFEIFLNPTNDTHNYLEYEVNALGTEWDLFLTRPYRDNPQVLNNWEFTGMKSAVYVDGTLNNPKDTDKSWSVEVFIPWTSVFQMDRGKEKPEIGEQIRVNFSRVEWTTDVKDGKYVKVPIQGEDKIREYNWVWAPTGVINIHMPEYWGYVQISDKIAGEGETPFVKHPSEETKWILRNLYYRQNEFAATFGHYADNINDLKANELCPQEIANQLEIHTTPSMYEISLPAPDGTVWNIRQDGLVWPKKK | not soluble
MKELNDLEKKYNAHIGVYALDTKSGKEVKFNSDKRFAYASTSHAINSAILLEQVPYNKLNKKVHINKDDIVAYSPILEKYVGKDITLKALIEASMTYSDNTANNKIIKEIGGIKKVKQRLKELGDKVTNPVRYEIELNYYSPKSKKDTSTPAAFGKTLNKLIANGKLSKENKKFLLDLMLNNKSGDTLIKDGVPKDYKVADKSGQAITYASRNDVAFVYPKGQSEPIVLVIFTNKDNKSDKPNDKLISETAKSVMKEF | soluble
MSLWLQISNARIVCEDHLVEAGLAICDGLIDCFEQGGTSKAEAIDFDGDFLLPGLIDLHTDSVEHFMQPRPGVQWPSPLAAVLAHDWQLLGSGITTVLDALALGDYDSGGTRTAMLNDAIDGLTQARASGLLKTDHYFHFRCELSDPALLPIVERHVDNPGLRLISMMDHTPGQRQWHNLTLYREFRRKKNARVWNEEEFALHLAERREHQQQYVPPGRSTIGHLCRERDIRIASHDDTAAADVDESRGDGITISEFPTTVEAASRARELGMKIVMGSPNIILGGSHSGNVSALELADRGLLDVLTSDYVPGSLLHAAFALAAKGFDLPEAVAMVTKTPADLLGFSDRGRIAPGLRADLIRVRLVEGVPVIRNIWVAGRQYLEGHHHHHH | not soluble
MGSDKIHHHHHHMTFRGGNTGAKHAVVVGSGPNGLTTAAVLAKAGWQVDVYEAAPTPGGAARSESVLGEGTISDLGAAGHPFGVASPAFHYLGLEDHGLEWAYSPFAMAHPLDYGRAGLLETSLPETAKKLGPDARRWKNLHQGLTKNIDKHLANLLGPVLKWPAHPIRMAKFGPFALLPAKRLASAAFETEEARSLFIGSAMHSVTPPHKPMTASLGLLFGALGMSRGWPVAVGGSGRIVDALVNVINHHGGTIHCDSQIDSLSQFRDTDAIILNQTPSQVLKLKGTDLNAGLPQRMSTWKHGPSSYKVDYLLDGPIPWSNPQVGQATTVHVGGSSEEIAFAEAEVAAGRMPERPFIILCQQQVADPSRAREGRHVVWAYAHVPRGFVDKRAALLITAQIERFAPGFRDRIVHSVDTNAEDLEAWNPNLVGGDITAGSALLRRMPTKIGEKTYMASASNAPGGGVHGMPGWWAAQAVLADHR | not soluble
MKTIRRYDVNEDRGHTGLVEAGDFYYLNYCVGNVGQDIESQINGAFDEMERRLALVGLTLDAVVQMDCLFRDVWNIPVMEKMIKERFNGRYPARKSIQTEFAHHGGPQGLLFQVDGVAYSKHISMT | soluble
MGSDKIHHHHHHMDVTMGYFTIPKGPGDSTDARWYNAPGGRSIFLRPDNKGTTRAVLTLQAPIREAPESAQEQKRWLKERFADAGWEAPRVLDGLEDATDLYFDLLRQVRMKRWHKGRIALTGDAAWCATPLSGIGTTLAIVGAYVLAGELSKTHDIAQAFKCYENIMRPFVEKGQNVPKFGPRLMHPHSRLGVSFQRSALRFVSKPGIQKVLTKVAMPAADKVDLPDYQYHASS | not soluble
MVQRVTIAPQGPEFSRFVMGYWRLMDWNMSARQLVSFIEEHLDLGVTTVDHADIYGGYQCEAAFGEALTLAPHLREKLQIVTKCGIATTARAENKLGHYITDRRHIILSAEQSLKNLATDYLDMLLIHRPDPLMDADDVAEAFQHLHQSGKVRHFGVSNFTPAQFTLLQSRLPFTLATNQVEISPVHQPLLLDGTLDQLQQLRIRPMAWSCLGGGRLFNDEAYQPLRQELSVIAQELNASSIEQVVYAWILRLPSQPLPIIGSGKIERVRAALEAETLSLTRQQWFRIRKAALGYDVP | not soluble
MGSDKIHHHHHHMVNNQLELEVKSFLEGQSDFANLPSSEITRLSQVIRKKKIRQGQWIFDQEDEFEYVFLMKEGHVKLFSMNLEGDMTSVSYIVPQMVFPLRGILQGRKYCYNAVAMCTSEVYILPIKEMRKIIVHHYAFTMAFMRRMEHRLHRSEKLLEKTTCSSAAQRVRQVLDYLNEDYAQTHGTVKKVPFKIFLKDLAVLSATTSETAGSVIKAMKEEKKVLYNNKIISFI | not soluble
MGSDKIHHHHHHMTTAPLSWEELETLTDYQIDTVNGLTNAKARLRLFGQPESDVRVTLYRDNHAWCPYCQKVWLWLEEKQIPYRIEKVTMFCYGEKESWYKRKVPSGMLPAIELDGRIIKESDDILIALEKVFAPLNQGMEDRMVLPLRQLERLLFRAWCVWLCSRAGSSQQEQRNREQFIEMVARIEEALGRTPSPYFLDSFGIVDVIFTPYLERMNASLYYYKGYSLREENPRLSAWFAAMESRPTYCGTQSDFHTHAHDLPPQMGGCWENGETQMLLNKARVDNGPWFGLPDVAYPEPENSRMEALKRTIEHRINIIRVNPLDDKLFDQALRCALTHMMTGEDYVPPSGADVALRYLRDRINVPRDMSIYAAKRLRESLEKTAALAGDGQPDPIPTKHRRDQDPSNFVIK | not soluble
GPGSMNAASYSGSGLASAATVEDVVKPDTIAAILAQLKEQDVRIGRLEAAVERSAINRTHFDILTMAGVTADFVCDEISFHNRSTVEFNALPCKVTLDYPCGELSILLDDADSDLSFLGVTLRVDCITDCHLLVDPDNCSVVVDTNTSKITDVTQLVLVGPTQEATRELYEALRDVVAQRRPPCSPAPDTTTTTTRNSSRALINRSEGEYESTLGGDGKLFSIEATPNNAGTTRNNVDASSSPRLQLSNTLPCDRTAHTPVDPRRPNTLPSFSANRKGTQQE | soluble
GSHMDINNKARIHWACRRGMRELDISIMPFFEHEYDSLSDDEKRIFIRLLECDDPDLFNWLMNHGKPADAELEMMVRLIQTRNRERGPVAI | soluble
